{"source": "patent US20240409647A1", "about": "“BISPECIFIC BINDING PROTEINS AGAINST ALARMINS AND USES THEREOF” (SINOMAB BIOSCIENCE LIMITED, priority 2022, published 2024)", "key": {"cynomolgus IL17RB": {"system": "cynomolgus IL17RB", "test": "ELISA, SM17 binding to coated IL-17RB protein (cynomolgus)", "conditions": "two wells", "method": "(§1) A standard enzyme-linked immunosorbent assay (ELISA) method was used to determine the species specificity of SM17 against IL-17RB proteins. Briefly, IL-17RB proteins from human, mouse, cynomolgus or rhesus monkey (R&D systems, Minneapolis, MN) were diluted to 2.5 μg/ml in PBS and 50 μl of IL-17RB proteins were added to each well of ELISA strip. The strips were sealed with parafilm and incubated at 4° C. overnight for coating.\n(§2) On the next day, strips were washed thrice with washing buffer (0.05% Tween 20 in PBS) and blocked with 100 μl per well with blocking buffer (3% BSA in PBS) for 2 hours RT before serially diluted SM17 (at a final concentration of 10, 2, 0.4, 0.08, 0.016, 0.0032, and 0.00064 μg/ml, respectively) was added."}, "rhesus IL17RB": {"biological_target": "T1, rhesus IL17RB (Macaca mulatta, UniProt H9FWT9)", "T1 construct": "purchased R&D systems", "T1 sequence (H9FWT9 18-502)": "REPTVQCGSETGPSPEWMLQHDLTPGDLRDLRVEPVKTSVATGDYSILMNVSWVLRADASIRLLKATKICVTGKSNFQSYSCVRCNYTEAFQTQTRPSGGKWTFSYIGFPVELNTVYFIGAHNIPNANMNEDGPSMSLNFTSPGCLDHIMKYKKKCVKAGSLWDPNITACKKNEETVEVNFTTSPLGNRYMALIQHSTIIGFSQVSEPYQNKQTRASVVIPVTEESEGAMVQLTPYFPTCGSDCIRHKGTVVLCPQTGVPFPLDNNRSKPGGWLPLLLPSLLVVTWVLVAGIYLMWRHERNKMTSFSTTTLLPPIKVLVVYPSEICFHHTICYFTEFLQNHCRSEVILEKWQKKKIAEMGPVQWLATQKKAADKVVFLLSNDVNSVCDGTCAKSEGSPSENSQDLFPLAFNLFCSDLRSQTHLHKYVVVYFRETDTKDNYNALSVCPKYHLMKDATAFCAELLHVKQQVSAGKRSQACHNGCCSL", "test": "ELISA, SM17 binding to coated IL-17RB protein (rhesus)", "set-up": "species or system rhesus monkey", "conditions": "two wells", "method": "as §1, §2"}, "[1]": {"system": "ILC2 population in human PBMC", "test": "ILC2 cell population in human PBMC culture (flow cytometry)", "format": "cell-based", "set-up": "key: −: no inhibition; +: weak; ++: moderate; +++: strong inhibition", "conditions": "IL-2 (10 unit/mL) and three alarmins (10 ng/ml), 5 days", "source_text": "While alarmins are known to work in concert to enhance ILC2 and Th2 cell functions such as increase in cell population, steroids such as Dexamethasone (Dex) can negate these effects, resulting in the mitigation of type 2 immune responses [Jia, Yi et al. American Journal Of Respiratory Cell And Molecular Biology, vol. 55, 5 (2016): 675-683]. ILC2 and Th2 cell population can be determined by flow cytometry (BD FACSVerse) following standard procedures known to those skilled in the art."}, "murine IL17RB": {"biological_target": "T2, murine IL17RB (Mus musculus, UniProt Q9JIP3)", "T2 construct": "purchased R&D systems", "T2 sequence (Q9JIP3 18-499)": "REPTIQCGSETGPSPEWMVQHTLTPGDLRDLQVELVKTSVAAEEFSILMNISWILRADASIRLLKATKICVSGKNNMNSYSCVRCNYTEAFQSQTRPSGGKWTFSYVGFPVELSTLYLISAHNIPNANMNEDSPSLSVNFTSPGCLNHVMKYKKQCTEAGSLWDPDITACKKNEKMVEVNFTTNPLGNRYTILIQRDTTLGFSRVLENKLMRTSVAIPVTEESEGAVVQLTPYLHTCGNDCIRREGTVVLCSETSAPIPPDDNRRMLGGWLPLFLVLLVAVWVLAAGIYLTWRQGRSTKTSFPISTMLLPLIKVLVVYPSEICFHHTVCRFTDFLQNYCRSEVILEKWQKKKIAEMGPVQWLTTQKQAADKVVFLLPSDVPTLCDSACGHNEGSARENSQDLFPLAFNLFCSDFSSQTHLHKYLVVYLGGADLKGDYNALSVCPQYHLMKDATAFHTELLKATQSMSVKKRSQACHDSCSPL", "test": "ELISA, SM17 binding to coated IL-17RB protein (murine)", "conditions": "two wells", "method": "as §1, §2"}, "hIL17RE": {"biological_target": "T3, hIL17RE (Homo sapiens, UniProt Q8NFR9)", "T3 construct": "purchased R&D systems", "T3 sequence (Q8NFR9 24-667)": "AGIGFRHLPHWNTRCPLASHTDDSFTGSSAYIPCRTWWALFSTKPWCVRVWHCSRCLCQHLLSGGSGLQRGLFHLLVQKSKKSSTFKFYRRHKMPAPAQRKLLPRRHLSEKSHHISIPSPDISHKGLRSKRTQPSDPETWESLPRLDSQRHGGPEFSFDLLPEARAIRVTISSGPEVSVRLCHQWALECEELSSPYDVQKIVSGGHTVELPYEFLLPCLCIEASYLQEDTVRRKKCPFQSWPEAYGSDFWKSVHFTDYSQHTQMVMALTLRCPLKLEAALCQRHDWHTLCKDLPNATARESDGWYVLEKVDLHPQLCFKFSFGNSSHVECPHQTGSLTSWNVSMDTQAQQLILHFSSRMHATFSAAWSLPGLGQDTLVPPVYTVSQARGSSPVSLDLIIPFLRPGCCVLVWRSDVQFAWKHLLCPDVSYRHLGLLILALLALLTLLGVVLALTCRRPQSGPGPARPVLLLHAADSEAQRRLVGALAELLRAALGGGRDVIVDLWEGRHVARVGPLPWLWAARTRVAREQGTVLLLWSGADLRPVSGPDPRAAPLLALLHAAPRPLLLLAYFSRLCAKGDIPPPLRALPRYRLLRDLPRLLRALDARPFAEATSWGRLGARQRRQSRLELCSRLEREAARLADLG", "test": "ELISA, SM17 specificity against IL-17 receptor subunits (IL17RE)", "format": "binding", "conditions": "0.4 to 0.00064 μg/mL", "method": "A standard ELISA method was used to determine the specificity of SM17 against other human IL17 receptor subunits. Similarly, serially diluted SM17 at different concentrations (final concentrations at 0.4, 0.08, 0.016, 0.0032 and 0.00064 μg/m, respectively) was added to the wells of ELISA plates coated either with human IL-17 receptor subunits A, C, D and E (IL17RA, IL17RC, IL17RD, and IL17RE) (R&D systems)."}}, "note": "“And” between values parts separate entries of the source, which are not always exact repeats. Equal values may be shown once.", "data": [{"substance": "SM17: humanized anti-IL17RB monoclonal antibody, human IgG4 isotype; HC SEQ ID NO: 32, LC SEQ ID NO: 33", "values": [{"measurement": "OD 450 nm Absorption, cynomolgus IL17RB", "setting": "cynomolgus IL17RB; SM17 0.016 μg/mL", "result": 0.34}, {"measurement": "OD 450 nm Absorption, cynomolgus IL17RB", "setting": "cynomolgus IL17RB; SM17 0.08 μg/mL", "result": "0.72 and 0.74"}, {"measurement": "OD 450 nm Absorption, cynomolgus IL17RB", "setting": "cynomolgus IL17RB; SM17 0.4 μg/mL", "result": "0.89 and 0.97"}, {"measurement": "OD 450 nm Absorption, cynomolgus IL17RB", "setting": "cynomolgus IL17RB; SM17 2 μg/mL", "result": "1.13 and 1.12"}, {"measurement": "OD 450 nm Absorption, cynomolgus IL17RB", "setting": "cynomolgus IL17RB; SM17 10 μg/mL", "result": "1.33 and 1.37"}, {"measurement": "OD 450 nm Absorption, rhesus IL17RB", "setting": "rhesus IL17RB; SM17 0.016 μg/mL", "result": "0.27 and 0.17"}, {"measurement": "OD 450 nm Absorption, rhesus IL17RB", "setting": "rhesus IL17RB; SM17 0.08 μg/mL", "result": "0.51 and 0.58"}, {"measurement": "OD 450 nm Absorption, rhesus IL17RB", "setting": "rhesus IL17RB; SM17 0.4 μg/mL", "result": "1.12 and 1.17"}, {"measurement": "OD 450 nm Absorption, rhesus IL17RB", "setting": "rhesus IL17RB; SM17 2 μg/mL", "result": "1.40 and 1.45"}, {"measurement": "OD 450 nm Absorption, rhesus IL17RB", "setting": "rhesus IL17RB; SM17 10 μg/mL", "result": "1.57 and 1.59"}, {"measurement": "Cell proliferation inhibition, ILC2", "setting": "[1]", "result": "++"}, {"measurement": "OD 450 nm Absorption, murine IL17RB", "setting": "murine IL17RB; SM17 0.0032 μg/mL", "result": "0.12 and 0.19"}, {"measurement": "OD 450 nm Absorption, murine IL17RB", "setting": "murine IL17RB; SM17 0.016 μg/mL", "result": 0.31}, {"measurement": "OD 450 nm Absorption, murine IL17RB", "setting": "murine IL17RB; SM17 0.08 μg/mL", "result": 0.78}, {"measurement": "OD 450 nm Absorption, murine IL17RB", "setting": "murine IL17RB; SM17 0.4 μg/mL", "result": "1.68 and 1.61"}, {"measurement": "OD 450 nm Absorption, murine IL17RB", "setting": "murine IL17RB; SM17 2 μg/mL", "result": "2.46 and 2.44"}, {"measurement": "OD 450 nm Absorption, murine IL17RB", "setting": "murine IL17RB; SM17 10 μg/mL", "result": "2.67 and 2.61"}, {"measurement": "binding of SM17 to IL17RE (in words)", "setting": "hIL17RE", "result": "No obvious bindings"}]}]}
